# Biological target: laminin-111 (UniProt P19137)
# Assay: AFM single-molecule force spectroscopy; integrin coupled to PEG-functionalized cantilever, laminin-111 (3 µg/mL) coated on mica; contact 1 s, retraction 300 nm/s; rupture force of the last contact
row,rupture force [pN],Substance
1,16,"soluble recombinant integrin α7hiβ1 ectodomains (hinge mutant, C604 and C610 replaced by alanine), heterodimerized with the zipper domains of Fos and Jun (from UniProt P05556 21-728) (complex)"
2,30,"soluble recombinant integrin α7wtβ1 ectodomains, heterodimerized with the zipper domains of Fos and Jun (from UniProt P05556 21-728) (complex)"
